Key:
[1] = tested on: OCIM1 (CD45+); assay: Cell viability assay 72 h (PrestoBlue), OCIM1; type: cell-based, human; details: drug-linker B1
Description: (§1) OCIM1, Jurkat and Nalm6 cells were seeded at 0.5×10^5/mL were cultured for 72 hours in presence of Mab or ADC or medium (in triplicate wells) in wells of flat bottom 96-well plates. 293T cells were seeded at 9.3×10^3 cells per well in flat bottom 96-well plates and allowed to adhere the plate for up to 24 hours. 293T cells were subsequently cultured with Mab or ADC or medium (in triplicate wells) for 72 hours. PrestoBlue® Cell viability Reagent (Thermo Fisher Scientific) was added to each and incubated for up to 1.5 hours. Fluorescence intensity from each well was detected using a FLUOstar OPTIMA microplate reader (BMG Labtech). Data points are mean±s.d. for representative experiments.

[2] = tested on: Jurkat (CD45+); assay: Cell viability assay 72 h (PrestoBlue), Jurkat; type: cell-based, human; details: drug-linker B1
Description: as §1

[3] = tested on: human CD45+ cells; assay: Engraftment of a second transplant of GFP+ autologous CD34+ cells in humanised NSG mice after conditioning; type: in vivo; details: 1 mg/kg (combination 0.5 mg/kg each); 9 weeks after GFP+ cell transplant
Description: Adult female NSG mice were sublethally irradiated with 2.5 Gy on the day before transplantation (day −1). Cryopreserved purified CD34+ cells from mobilized peripheral blood from a normal donor were thawed and 0.5×10^6 cells in PBS were injected intravenously into the tail vein of mice (day 0). Human engraftment (human CD45+ cells) in the blood of mice was assessed at week 8. Mice were assigned to treatment cohorts so that the median human CD45+ engraftment in the blood for each cohort was as similar as possible. Mice were injected with 1 mg/kg Mab or ADC or a combination of YTH MAbs (0.5 mg/kg each) or YTH ADCs (0.5 mg/kg each) intravenously via the tail vein. Mice were subsequently transplanted with lentivirally transduced green fluorescent protein (GFP) autologous CD34+ cells (Week 10). A separate cohort of sublethally irradiated (non-humanized) NSG were injected with the same batch of GFP transduced cells served as a positive control for GFP+ human cell engraftment. Nine weeks after GFP+ cell transplant, mice were culled and blood, spleen and bone marrow taken for analysis.

[4] = tested on: 293T (CD45-); assay: Cell viability assay 5 days (PrestoBlue), 293T; type: cell-based, human; details: rat IgG2b ADC, n=3
Description: OCIM1, Jurkat and Nalm6 cells were seeded at a final concentration of 1.275×10^4/mL and for 5 days in presence of rat IgG2b Mab or ADC or medium (in triplicate) in wells of flat bottom 96-well plates. 293T cells were seeded at 9.3×10^3 cells per 100 uL per well in flat bottom 96-well plates and allowed to adhere the plate for up to 24 hours. 293T cells were subsequently cultured with rat IgG2b Mabs or ADC or medium (in triplicate wells) as described above. PrestoBlue® Cell viability Reagent (Thermo Fisher Scientific) was added to each and incubated for up to 1.5 hours. Fluorescence intensity from each well was detected using a FLUOstar OPTIMA microplate reader (BMG Labtech). Data was plotted using Prism 8.0 and sigmoid dose-response non-linear regression was used to determine EC50 values. Data points are mean±s.d. for representative experiments.

[5] = tested on: fLuc+ OCIM1 cells; assay: AML model in NSG mice, treatment the day after cell injection; type: in vivo; details: for tumor (bioluminescence) signal: 1 mg/kg or 5 mg/kg i.v. the day after OCIM1 injection; for mice developing tumor / tumor signal: 1 mg/kg or 5 mg/kg i.v., cohorts of 5 mice
Description: (§2) NSG mice were transplanted with 7.5×10^6 luciferase expressing fLuc+ OCIM1 cells i.v. On the following day, unconjugated rat IgG2b antibodies or ADCs were injected i.v. via a tail vein at a dose of 1 mg/kg or 5 mg/kg. Mice were regularly monitored for signs of morbidity for the duration of the experiment. For imaging, mice were injected intraperitoneally with 200 μl of 15 mg/mL D-luciferin (Regis Technologies) in PBS. Mice were subsequently anesthetized with 4% isoflurane and maintained at 2% isoflurane. Ten minutes after injection of D-luciferin, mice were placed with anterior side up inside a IVIS Lumina III (PerkinElmer). A sub-saturating image was captured using the auto-exposure setting in the Living Image software (v4.5). Quantification and preparation of images was also carried out using the same software.

[6] = tested on: fLuc+ OCIM1 cells; assay: Established AML model in NSG mice, treatment 10 days post-injection; type: in vivo; details: cohorts of 5 mice, all tumor-bearing
Description: as §2, with “7.5×10^6” for “7.5×10^6 luciferase expressing”, “At 10 days post-injection of AML cells,” for “On the following day,”, “antibody” for “rat IgG2b antibodies”

[7] = tested on: human CD45+ cells; assay: Allogeneic stem cell transplant model in humanized NSG mice (YTH24.5-B1 conditioning); type: in vivo; details: 1 mg/kg
Description: Adult NSG mice (Charles River Laboratories) were sublethally irradiated with 2.5 Gy in a ^137Cs irradiator. On the following day, mice were injected with 0.5×10^6 freshly thawed cryopreserved human CD34+ cells from a health donor were injected via the tail vein in 150 μL PBS using a 29 gauge MicroFine Plus insulin syringe (BD). Engraftment of human cells in the blood was assessed periodically from 6 weeks after transplantation. At 10 weeks post-transplant, humanized NSG mice were assigned into cohorts with similar median human CD45+ cell engraftment in the blood, as determined by flow cytometry. Mice were injected with PBS or 1 mg/kg YTH24.5-B1. Sixteen 16 days after treatment, mice were transplanted with 0.5×10^6 GFP+CD34+ cells from another healthy donor. Irradiated NSG […] were also transplanted with the GFP+CD34+ from the allogeneic healthy donor as a control for engraftment of the GFP+CD34+ cells. 8 weeks after transplantation of GFP+ cells, mice were culled and blood, spleen and bone marrow taken for analysis by flow cytometry.

Molecule | EC50 values, viability assay, OCIM1 (CD45+) [1] | EC50 values, viability assay, Jurkat (CD45+) [2] | GFP+CD34+ out of total human CD34+ cells in the bone marrow [3] [%] | EC50 [4] [nM] | tumor (bioluminescence) signal [5] | mice developing tumor / tumor signal [5] | mice alive at 60 days [6] | mean % hCD45 engraftment in the bone marrow ([7]; 8 weeks after allogeneic GFP+ cells, PBS 37.5%) [%] | percentage GFP+hCD45+ cells of all human CD45+ cells in bone marrow (mean) ([7]; PBS 2.1%, irradiation control 41.3%) [%] | GFP+hCD34+ cells within the human CD34+ compartment in the bone marrow (mean) ([7]; PBS 3.7%) [%]
YTH54.12-B1: rat IgG2b anti-CD45 antibody YTH54.12 conjugated to cleavable PBD drug-linker B1 (drawing 43) (conjugate) heavy: EVQLVESGGGLVQPGGSMKLSCAASGFTFSDYYMAWVRQAPKKGLEWVASMSFAGSSTYYGDSVKGRFTISRDNAKTTLYLQMNSLRSEDTATYYCARMYTTDYYLYWYFDFWGPGTMVTVSSAQTTAPSVYPLAPGCGDTTSSTVTLGCLVKGYFPEPVTVTWNSGALSSDVHTFPAVLQSGLYTLTSSVTSSTWPSQTVTCNVAHPASSTKVDKKVERRNGGIGHKCPTCPTCHKCPVPELLGGPSVFIFPPKPKDILLISQNAKVTCVVVDVSEEEPDVQFSWFVNNVEVHTAQTQPREEQYNSTFRVVSALPIQHQDWMSGKEFKCKVNNKALPSPIEKTISKPKGLVRKPQVYVMGPPTEQLTEQTVSLTCLTSGFLPNDIGVEWTSNGHIEKNYKNTEPVMDSDGSFFMYSKLNVERSRWDSRAPFVCSVVHEGLHNHHVEKSISRPPGK light: DVQMTQSPSYLAASPGESVSISCKASKSISNYLAWYQQKPGEANKILIYSGSTLQSGTPSRFSGSGSGTDFSLTIRNLEPEDFAVYYCQQYDEKPLTFGSGTKLEIKRADAAPTVSIFPPSMEQLTSGGATVVCFVNNFYPRDISVKWKIDGSEQRDGVLDSVTDQDSKDSTYSMSSTLSLTKVEYERHNLYTCEVVHKTSSSPVVKSFNRNEC | low pM range | low pM range | ~80 | > 6 | increasing tumor signal from day 18 onwards | 1 out of 5 | – | – | – | –
YTH24.5-B1: rat IgG2b anti-CD45 antibody YTH24.5 conjugated to cleavable PBD drug-linker B1 (drawing 43) (conjugate) heavy: QVNLLQSGAALVKPGASVKLSCKASSYTFTDYYIHWVKQSHGKTLEWIGYINPKSGFTNYNEKFRRKATLTVDKSTNTAYMDISRLTSEDSATYYCTRRTGVIPMDAWGQGASVTVSSAQTTAPSVYPLAPGCGDTTSSTVTLGCLVKGYFPEPVTVTWNSGALSSDVHTFPAVLQSGLYTLTSSVTSSTWPSQTVTCNVAHPASSTKVDKKVERRNGGIGHKCPTCPTCHKCPVPELLGGPSVFIFPPKPKDILLISQNAKVTCVVVDVSEEEPDVQFSWFVNNVEVHTAQTQPREEQYNSTFRVVSALPIQHQDWMSGKEFKCKVNNKALPSPIEKTISKPKGLVRKPQVYVMGPPTEQLTEQTVSLTCLTSGFLPNDIGVEWTSNGHIEKNYKNTEPVMDSDGSFFMYSKLNVERSRWDSRAPFVCSVVHEGLHNHHVEKSISRPPGK light: DVVMTQTPVSLSVSLGGQVSISCRSSQSFVSSDGNTYLNWYLQKPGQSPQLLIYKVSNRLSGVPDRFSGSGSGTDFTLKISRVEHDDLGVYYCGQASKIPLTFGSGTKLEIKRADAAPTVSIFPPSMEQLTSGGATVVCFVNNFYPRDISVKWKIDGSEQRDGVLDSVTDQDSKDSTYSMSSTLSLTKVEYERHNLYTCEVVHKTSSSPVVKSFNRNEC | low pM range | low pM range | ~80 | > 6 | Low/absent tumor signal | 1 out of 5 | 4/5 | 9.08 | 29.0 | 56.6
